Assay results reported in US20250277030A1 (Zymeworks, published 2025).
Substitutions are numbered along the chain they refer to. Each block holds one binder with its values, some of them ahead of it.

Columns and labels:
[1] = biological target: T1, human sodium-dependent phosphate transporter 2B (NaPi2b) (human, UniProt O95436 1-690); experiment: flow cytometry, IGROV-1 cells (endogenous NaPi2b), 24 h at 4 °C; apparent Kd
T1 construct: UniProt ID is given as 095436 [sic]; also called hNaPi2b; Hu NaPi2b
T1 sequence: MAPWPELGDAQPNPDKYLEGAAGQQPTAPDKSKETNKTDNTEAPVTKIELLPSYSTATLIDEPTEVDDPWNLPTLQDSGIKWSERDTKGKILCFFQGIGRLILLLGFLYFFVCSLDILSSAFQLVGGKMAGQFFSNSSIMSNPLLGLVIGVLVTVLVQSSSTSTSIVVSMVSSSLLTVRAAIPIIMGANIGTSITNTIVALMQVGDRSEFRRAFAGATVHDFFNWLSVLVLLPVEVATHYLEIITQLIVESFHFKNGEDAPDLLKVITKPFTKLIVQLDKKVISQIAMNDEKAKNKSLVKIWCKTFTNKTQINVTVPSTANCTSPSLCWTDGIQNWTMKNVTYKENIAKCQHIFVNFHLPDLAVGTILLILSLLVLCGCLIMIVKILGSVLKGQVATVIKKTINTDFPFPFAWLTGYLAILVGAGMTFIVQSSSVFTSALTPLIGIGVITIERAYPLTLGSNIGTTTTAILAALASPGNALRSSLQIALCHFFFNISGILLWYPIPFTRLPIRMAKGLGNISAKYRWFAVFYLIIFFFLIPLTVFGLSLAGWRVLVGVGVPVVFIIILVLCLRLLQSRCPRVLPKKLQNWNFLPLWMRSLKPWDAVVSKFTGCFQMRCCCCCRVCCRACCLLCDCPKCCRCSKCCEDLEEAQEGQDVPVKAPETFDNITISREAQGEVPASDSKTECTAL
Description: (§1) IGROV-1 cells express endogenous NaPi2b at a high level.
(§2) Briefly, cells were seeded at 50,000 cells/well in conical-bottom 96-well plates and treated with test antibody for 24 hours at 4° C. to prevent internalization. […] Following incubation, cells were washed and stained with anti-Human IgG Fc AF647 conjugate (Jackson Immuno Research Labs, West Grove, PA; Cat. No. 109-605-098) at 4° C. for 30 min. Following incubation and washing, fluorescence was detected by flow cytometry on a BD LSRFortessa™ Cell Analyzer (BD Biosciences, Franklin Lake, NJ) with 1,000 minimum events collected per well. The AF647/APC-A GeoMean (fluorescence signal geometric mean, proportional to anti-Human AF647 binding) was calculated for the live cell population using FlowJo™ Version 10.8.1 (BD Biosciences, Franklin Lake, NJ) and plotted for each test antibody using GraphPad Prism Version 9 (GraphPad Software, San Diego, CA).

[2] = biological target: T1, human sodium-dependent phosphate …; experiment: flow cytometry on IGROV-1 cells (endogenous NaPi2b), 24 h at 4 C, anti-human IgG Fc AF647 detection
Description: as §1, §2

[3] = biological target: T1, human sodium-dependent phosphate …; experiment: cell-based or functional assay
[4] = biological target: T1, human sodium-dependent phosphate …; experiment: flow cytometry, IGROV-1 cells (endogenous NaPi2b), 24 h at 4 °C
Description: as §1, §2

[5] = biological target: T2, KLH (Sigma-Aldrich, H8283); experiment: non-specific binding ELISA, KLH coated at 5 µg/mL, antibody at 100 nM
T2 construct: also called keyhole limpet hemocyanin
Description: NS-ELISA was carried out in Corning®96-well EIA/RIA Easy Wash™ Clear Flat Bottom Polystyrene High Bind Microplate coated overnight at 4° C. with 50 μL of Heparin (Sigma, H3149) diluted with 50 mM sodium carbonate pH 9.6 to a final concentration of 250 μg/mL. The plate was incubated for 2 days at room temperature, wells that were coated with heparin were not covered to allow air dry. […] 50 μL each of insulin, KLH, dsDNA and ssDNA were added to a 96 well plate, followed by the incubation at 37° C. for 2 h. The coating materials were removed, and the plate was blocked with 200 μL of Gibco™ PBS pH7.4, 0.1% Tween®20, and incubated for 1 h at room temperature with shaking at 200 rpm. The plate was washed 3 times with Gibco™ PBS pH7.4, 0.1% Tween 20. […] Reactions were stopped after approximately 10 minutes by adding 100 μL of 1 M HCl to each well, and absorbance was read at 450 nm. Binding scores were calculated as the ratio of the ELISA signal of the antibody (antibody-treated) to the signal of a well containing buffer instead of the primary antibody (untreated). The cutoffs considered for each binding molecule (ssDNA, KLH, insulin, dsDNA and heparin) were internally calculated, based on the average of Zymeworks Inc. produced antibodies and antibodies benchmarks published in the literature.

[6] = biological target: T1, human sodium-dependent phosphate …; experiment: KinExA, IGROV-1 cells, monovalent format
Description: The binding affinity of anti-NaPi2b antibody constructs was assessed by Kinexa in the endogenous NaPi2b-expressing cell line, IGROV-1.
(§3) The cell-binding assay was set up using the antibody constructs or variants as constant binding partner at two different concentrations of 50 pM and 500 pM. For the titration curve with antibody variants fixed at 50 pM, at least 10 million IGROV-1 cells were used as titrant. For the titration curve with antibody variants fixed at 500 pM, at least 5 million cells were used as titrant. The antibody variants and cells were mixed in PBS pH 7.4, 1 mg/mL BSA, 0.2% NaN₃ and incubated at 4° C. for 7 days with gentle rotation until equilibrium was reached. After incubation, the mixture of antibody variants and cells was centrifuged to separate the cells from the unbound free antibody variants. The free antibody variants were loaded onto the KinExA 3200 (Sapidyne, Boise, Idaho) with biotinylated—anti-human IgG PMMA as solid phase and 0.5 μg/mL of Alexa 647 goat anti-human IgG (Jackson ImmunoResearch, West Grove, PA) as detection antibody.
(§4) N-curve analysis was used to calculate the affinity and receptor expression level with the concentrations of antibody variant as reference point.

[7] = biological target: T1, human sodium-dependent phosphate …; experiment: KinExA, IGROV-1 cells (endogenous NaPi2b) as titrant, monovalent antibody constant at 50 and 500 pM, N-curve analysis
Description: as §3, §4

[8] = biological target: T1, human sodium-dependent phosphate …; experiment: flow cytometry, IGROV-1 cells (endogenous NaPi2b)
Description: (§5) Briefly, HEK293-6e cells were transfected for ˜24 hours to transiently express human NaPi2b, cynomolgus or mouse NaPi2b, at 1 μg of DNA per 1 million cells. Following transfection, 50,000 cells per well were seeded in V-bottom 96-well plates and incubated with 200 nM of primary antibody for 18-24 hours at 4° C. to prevent internalization. Post-incubation, cells were washed and stained with anti-Human IgG Fc AF647 conjugate (Jackson Immuno Research Labs, West Grove, PA, Cat. No. 109-605-098, Lot. No. 124868) at 4° C. for 1 hour. Following staining and washing, fluorescence was detected by flow cytometry on BD LSRFortessa™ Cell Analyzer (BD Biosciences, Franklin Lake, NJ) with 10,000 minimum events collected per well. The AF647/APC-A GeoMean (fluorescence signal geometric mean, proportional to anti-Human AF647 binding) was calculated for the live singlet cell population for each primary antibody using FlowJo™ v8 software (BD Biosciences, Franklin Lake, NJ). The Bmax and Kd of each primary antibody were calculated using GraphPad Prism Version 9 (GraphPad Software, San Diego, CA)
(§6) The ability of ADCs to bind to cells expressing NaPi2b was assessed. […] Binding to endogenous high NaPi2b-expressing cell lines IGROV-1 and HCC-78 was assessed by flow cytometry according to methods described in Example 5.

[9] = biological target: T1, human sodium-dependent phosphate …; experiment: flow cytometry, HCC-78 cells (endogenous NaPi2b); apparent Kd
Description: as §5, §6

[10] = biological target: T1, human sodium-dependent phosphate …; experiment: flow cytometry, IGROV-1 cells (endogenous NaPi2b); apparent Kd
Description: as §5, §6

[11] = biological target: T1, human sodium-dependent phosphate …; experiment: flow cytometry on HCC-78 cells (endogenous NaPi2b), 4 C, anti-human IgG Fc AF647 detection
Description: as §5, §6

[12] = biological target: T1, human sodium-dependent phosphate …; experiment: flow cytometry, HCC-78 cells (endogenous NaPi2b)
Description: as §5, §6

[13] = biological target: T1, human sodium-dependent phosphate …; experiment: flow cytometry on IGROV-1 cells (endogenous NaPi2b), 4 C, anti-human IgG Fc AF647 detection
Description: as §5, §6

B1: v18992-DL2, MX35 conjugated to MT-VC-Compound 1 (DAR 3) (antibody, human IgG1, kappa)
heavy 1: GQVQLVQSGAEVVKPGASVKMSCKASGYTFTGYNIHWVKQAPGQGLEWIGAIYPGNGDTSYKQKFRGRATLTADTSTSTVYMELSSLRSEDSAVYYCARGETARATFAYWGQGTLVTVSSASTKGPSVFPLAPSSKSTSGGTAALGCLVKDYFPEPVTVSWNSGALTSGVHTFPAVLQSSGLYSLSSVVTVPSSSLGTQTYICNVNHKPSNTKVDKKVEPKSCDKTHTCPPCPAPELLGGPSVFLFPPKPKDTLMISRTPEVTCVVVDVSHEDPEVKFNWYVDGVEVHNAKTKPREEQYNSTYRVVSVLTVLHQDWLNGKEYKCKVSNKALPAPIEKTISKAKGQPREPQVYVYPPSRDELTKNQVSLTCLVKGFYPSDIAVEWESNGQPENNYKTTPPVLDSDGSFALVSKLTVDKSRWQQGNVFSCSVMHEALHNHYTQKSLSLSPG
heavy 2: not shown
light: GDIQMTQSPSSLSASVGDRVTITCSASQDIGNFLNWYQQKPGKTVKVLIYYTSSLYSGVPSRFSGSGSGTDYTLTISSLQPEDFATYYCQQYSKLPLTFGQGTKLELKRTVAAPSVFIFPPSDEQLKSGTASVVCLLNNFYPREAKVQWKVDNALQSGNSQESVTEQDSKDSTYSLSSTLTLSKADYEKHKVYACEVTHQGLSSPVTKSFNRGEC
modifications: MT-VC-Compound 1 (DL2) on cysteines freed by reduction; positions not given; MT-VC-Compound 1 (DL2) on cysteines freed by reduction; positions not given; DAR 3 for the whole antibody
notes: also called MX35 Compound 1 ADC; MX35-DL2 ADC
Kd [1]: 1.22 nM
EC50 (read off the curve) [2]: ~1 nM
In vitro cytotoxicity EC50 (nM), HCC-78 [3]: 0.13 nM
In vitro cytotoxicity EC50 (nM), IGROV-1 [3]: 0.11 nM
In vitro cytotoxicity EC50 (nM), OVCAR-3 [3]: 0.02 nM
Bmax (MFI) [4]: 41200 MFI

B2: v29452 humanized anti-NaPi2b antibody (H1L3) (antibody, human IgG1, kappa, V domains shown)
VH: QVQLVQSGAEVKKPGASVKVSCKASGFTFTSYNVHWVRQAPGQGLEWMGAISPGNGDLSYAQKFQGRVTMTRDTSTSTVYMELSSLRSEDTAVYYCARGRTGMGAVDYWGQGTLVTVSS
VL: DVQMTQSPSSLSASVGDRVTITCRASQDVYSYLNWYQQKPGKAVKLLIYYTSRLQSGVPSRFSGSGSGTDYTLTISSLQPEDIATYYCQQYNIFPWTFGQGTKLEIKR
Kd [1]: 1.6 nM
NS-ELISA binding score (ratio of signal between antibody-treated and untreated) [5]: 1.34 ratio
Bmax (MFI) [4]: 47800 MFI

B3: v36123, monovalent format of humanized antibody variant 29452 (antibody, V domains shown)
VH: B2 VH
VL: DVQMTQSPSSLSASVGDRVTITCRASQDVYSYLNWYQQKPGKAVKLLIYYTSRLQSGVPSRFSGSGSGTDYTLTISSLQPEDIATYYCQQYNIFPWTFGQGTKLEIK
notes: Only said to be the monovalent format of v29452; also called v36123 (VH1/VL3)
fold lower binding affinity than chimeric parental antibody construct (v29814) [6]: ~2 fold
Kd [7]: 0.297 nM

Second part, led by results:

Bmax (MFI) [8]: 81400 MFI
Kd [9]: 2.32 nM
Kd [10]: 0.77 nM
EC50 (read off the curve) [11]: ~2 nM
Bmax [12]: 20400
B4: v29456-DL2, v29456 conjugated to MT-VC-Compound 1 (DAR 4) (antibody, human IgG1, kappa)
heavy: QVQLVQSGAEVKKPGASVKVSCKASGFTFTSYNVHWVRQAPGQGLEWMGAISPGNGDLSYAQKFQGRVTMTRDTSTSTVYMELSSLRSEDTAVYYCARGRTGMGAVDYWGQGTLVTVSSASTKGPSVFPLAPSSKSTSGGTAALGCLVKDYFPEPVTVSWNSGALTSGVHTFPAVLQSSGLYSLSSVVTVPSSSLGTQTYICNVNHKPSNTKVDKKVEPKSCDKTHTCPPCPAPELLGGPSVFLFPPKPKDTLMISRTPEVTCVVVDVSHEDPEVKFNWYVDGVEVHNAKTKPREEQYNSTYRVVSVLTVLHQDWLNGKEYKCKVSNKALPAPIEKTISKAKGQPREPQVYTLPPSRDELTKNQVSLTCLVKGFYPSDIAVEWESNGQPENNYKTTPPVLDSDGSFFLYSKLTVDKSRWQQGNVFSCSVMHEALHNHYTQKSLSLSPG
light: DVQMTQSPSSLSASVGDRVTITCRASQDVYSYLNWYQQKPGKAVKLLIYYTSRLQSGVPSRFSGSGSGTDYTLTISSLQPEDFATYYCQQYNIFPWTFGQGTKLEIKRTVAAPSVFIFPPSDEQLKSGTASVVCLLNNFYPREAKVQWKVDNALQSGNSQESVTEQDSKDSTYSLSSTLTLSKADYEKHKVYACEVTHQGLSSPVTKSFNRGEC
modifications: MT-VC-Compound 1 (DL2) on cysteines freed by reduction; positions not given; MT-VC-Compound 1 (DL2) on cysteines freed by reduction; positions not given; DAR 4 for the whole antibody
notes: also called v29456-MT-VC-Compound 1
In vitro cytotoxicity EC50 (nM), HCC-78 [3]: 0.06 nM
In vitro cytotoxicity EC50 (nM), IGROV-1 [3]: 0.08 nM
In vitro cytotoxicity EC50 (nM), OVCAR-3 [3]: 0.01 nM

fold lower binding affinity than chimeric parental antibody construct (v29814) [6]: ~2 fold
Kd [7]: 0.283 nM
B5: v36124, monovalent format of humanized antibody variant 29456 (antibody, V domains shown)
VH: B2 VH
VL: B3 VL with I83F
notes: Only said to be the monovalent format of v29456; also called v36124 (VH1/VL2)

Bmax (MFI) [8]: 77000 MFI
Kd [9]: 2.27 nM
Kd [10]: 0.67 nM
EC50 (read off the curve) [13]: ~0.7 nM
Bmax [12]: 21800
B6: v29456-DL1, v29456 conjugated to MC-GGFG-AM-DXd1 (DAR 8) (antibody, human IgG1, kappa)
heavy: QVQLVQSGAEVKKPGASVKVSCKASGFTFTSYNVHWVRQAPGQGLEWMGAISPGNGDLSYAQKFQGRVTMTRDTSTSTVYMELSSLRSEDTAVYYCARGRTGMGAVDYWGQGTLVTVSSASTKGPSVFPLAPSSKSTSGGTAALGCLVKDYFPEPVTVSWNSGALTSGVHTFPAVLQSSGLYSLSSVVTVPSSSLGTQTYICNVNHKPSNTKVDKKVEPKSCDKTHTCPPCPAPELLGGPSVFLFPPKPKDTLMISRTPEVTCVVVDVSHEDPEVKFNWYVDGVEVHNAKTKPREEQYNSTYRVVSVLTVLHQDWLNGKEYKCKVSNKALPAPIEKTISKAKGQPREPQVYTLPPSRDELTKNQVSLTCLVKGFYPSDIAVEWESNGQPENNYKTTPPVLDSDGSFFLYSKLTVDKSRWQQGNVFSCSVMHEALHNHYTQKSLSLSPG
light: B4 light
modifications: MC-GGFG-AM-DXd1 (DL1) on cysteines freed by reduction; positions not given; MC-GGFG-AM-DXd1 (DL1) on cysteines freed by reduction; positions not given; DAR 8 for the whole antibody
notes: also called v29456-MC-GGFG-AM-DXd1
In vitro cytotoxicity EC50 (nM), HCC-78 [3]: 0.51 nM
In vitro cytotoxicity EC50 (nM), IGROV-1 [3]: 1.14 nM
